Experimental data as given in US20060217308A1, “Compositions for the treatment of tumor pathologies, comprising internalin B (ln1B) of Listeria monocytogene protein or a fragment thereof” (priority 2005, published 2006).

Tests used:
Type in all cases: cell-based, human
Met [1] = test: In1B-induced ubiquitination of Met (anti-Met immunoprecipitation, anti-ubiquitin blot) in HeLa cells
Experimental: (A) Listeria monocytogenes EGD (BUG600) (MOI 25) or purified In1B (5 nM) were added (+) for two minutes to HeLa cells. Samples were immunoprecipitated against Met and blotted against ubiquitin using P4D1 monoclonal antibody. (B) In1B was added to HeLa cells for two minutes and samples were re-immunoprecipitated against Met. Samples were blotted against ubiquitin (Ub) or Met. (C) Increasing amounts of In1B were added to HeLa cells (1 to 6 corresponding to 0, 0.22, 0.44, 0.88, 1.75, […], 5 nM respectively) for two minutes. Extracts were immunoprecipitated against Met and blotted against Met or ubiquitin (Ub). (D) As C, but 1 to 6 correspond to 0, 3.5, 10, 20, 40, 80 nM In1B, respectively. (E) 5 nm of purified In1B was added to HeLa cells for the indicated times. Cell extracts were immunoprecipitated (IP) against Met and blotted (WB) against Met or ubiquitin (Ub). At the left of all panels the molecular weight markers are indicated in kDa. In C and D, 8% acrylamide gels were used, while 10% acrylamide gels were used in A, B, and E.
Cells, bacteria and growth conditions. The human cell line used was HeLa (ATCC number CCL-2) grown as recommended by ATCC. Typically, cells were serum starved for three hours before the addition of In1B. The bacterial strains used were Listeria monocytogenes BUG600 and BUG1461. They were grown in BHI medium, which in the case […] contained 5 μg/ml of erythromycin.
Assays. Immunoprecipitation, Re-immunoprecipitation, and immunoblots were performed as described before (31). In1B purification was performed as described (54).
It has been previously described that the ubiquitin ligase Cbl is recruited to the Met complex during the first minute after cell treatment with soluble In1B (31). Whether Listeria infection promotes ubiquitination of Met was studied. Epithelial HeLa cells were infected with Listeria monocytogenes (at a m.o.i. 25) or treated with purified In1B (5 nM) (FIG. 1A) for two minutes. Cellular extracts were immunoprecipitated using an antibody that recognizes Met and ubiquitination of immunoprecipitated proteins was tested with an anti-ubiquitin antibody. A clear increase in the amount of ubiquitinated proteins associated with Met was detected after infection with Listeria.
To assess whether the signal observed after In1B treatment corresponded to Met ubiquitination, a re-immunoprecipitation assay was performed. Anti-Met immunoprecipitates from cells samples treated (or not) with In1B were denatured (boiled in presence of 1% SDS), to dissociate Met complexes, and re-immunoprecipitated using anti-Met antibodies. The resulting samples were immunoblotted against ubiquitin (FIG. 1B left panel) and Met (FIG. 1B right panel). Ubiquitin was only detectable in the lane corresponding to In1B treated samples, whereas Met was present in both lanes corresponding to In1B-treated or non-treated samples.
In order to determine the minimal amount of In1B necessary to trigger Met ubiquitination, HeLa cells were treated with increasing amount of In1B for two minutes. Cell extracts were then immunoprecipitated using the anti-Met antibody and blotted with anti ubiquitin or anti Met antibodies (FIGS. 1C and 1D). 1.75 nM of In1B was sufficient to induce ubiquitination of Met. […] Note that ubiquitinated Met migrated slower and than non-ubiquitinated in 8% acrylamide SDS-PAGE gels (FIGS. 1C and 1D), in agreement with an increase in apparent molecular weight of ubiquitinated proteins. Again, Met detection was always weaker after ubiquitination, supporting the previous observation that ubiquitination of Met was leading to Met degradation.
Next, the kinetics of In1B-dependent ubiquitination of Met were tested. In1B (5 nM) was added during increasing time periods to HeLa cells and cell extracts were immunoprecipitated using anti-Met antibodies (FIG. 1E). In1B-induced ubiquitination was maximal two minutes after treatment and declined thereafter. […]

Met [2] = test: Cell surface biotinylation and internalization assay of Met; conditions: HeLa cells, In1B two minutes
Experimental: (A) Hela cells were treated (+) with […] epoximycin, […] clasto-lactacystin-β-lactone (lactone), 20 mM ammonium chloride, or 5 μM bafilomycin A1 (Baf-A1) for 90 minutes before addition of In1B. Cell extracts were loaded in a SDS-PAGE gel followed by immunoblot with anti-Met antibody. […] (B) Surface exposed proteins of Hela cells were biotinylated (Biot +) before addition of In1B. In1B was added for two minutes to allow internalization of Met, then cells were washed and biotin was removed (see methods and text) from the surface. Samples were precipitated with neutravidin agarose and blotted against Met.
Cell surface biotinylation and internalization assay were performed as described before (35). Briefly, the cells were washed in ice-cold PBS, and incubated with 25 mg/ml EZ-link Sulfo-NHS-SS-biotin (Pierce) 15 minutes in PBS pH 8.0, and followed by one wash with serum free media containing 0.1% BSA, followed by one wash in PBS containing Ca and Mg (PBS+CaMg; Gibco). The cells were then warmed to 37° C., incubated with In1B for two minutes, and then cooled down to 4° C. The cells were washed again with PBS+CaMg, and cell-surface debiotinylation was performed by adding 100 mM MESNA in 50 mM Tris-HCl pH 8.6, 100 mM NaCl, 1 mM EDTA and 0.2% BSA (3 times, 10 minutes incubation). […]

Met [3] = test: Maintenance of InIB-induced degradation of Met in the presence of HGF; conditions: HeLa cells, HGF 1 nM + InIB 5 nM, 1% serum medium
Experimental: FIG. 9 depicts immunodetection of Met from total cell lysates. Serum-containing media (1%) with HGF (1 nM), HGF (1 nM)+InIB (5 nM), or without either HGF or InIB (control) was added to HeLa cells. Cells were recovered at the indicated times after addition of HGF, and HGF+InIB, resuspended in SDS-PAGE sample buffer, and immediately boiled for 5 minutes.
Shortly after InIB treatment, Met is very rapidly degraded. Thus, whether InIB-induced degradation of Met is maintained for longer periods of time was tested. In fact, InIB-induced degradation of Met is maintained in time.

Chain of Met (P08581 25-1390): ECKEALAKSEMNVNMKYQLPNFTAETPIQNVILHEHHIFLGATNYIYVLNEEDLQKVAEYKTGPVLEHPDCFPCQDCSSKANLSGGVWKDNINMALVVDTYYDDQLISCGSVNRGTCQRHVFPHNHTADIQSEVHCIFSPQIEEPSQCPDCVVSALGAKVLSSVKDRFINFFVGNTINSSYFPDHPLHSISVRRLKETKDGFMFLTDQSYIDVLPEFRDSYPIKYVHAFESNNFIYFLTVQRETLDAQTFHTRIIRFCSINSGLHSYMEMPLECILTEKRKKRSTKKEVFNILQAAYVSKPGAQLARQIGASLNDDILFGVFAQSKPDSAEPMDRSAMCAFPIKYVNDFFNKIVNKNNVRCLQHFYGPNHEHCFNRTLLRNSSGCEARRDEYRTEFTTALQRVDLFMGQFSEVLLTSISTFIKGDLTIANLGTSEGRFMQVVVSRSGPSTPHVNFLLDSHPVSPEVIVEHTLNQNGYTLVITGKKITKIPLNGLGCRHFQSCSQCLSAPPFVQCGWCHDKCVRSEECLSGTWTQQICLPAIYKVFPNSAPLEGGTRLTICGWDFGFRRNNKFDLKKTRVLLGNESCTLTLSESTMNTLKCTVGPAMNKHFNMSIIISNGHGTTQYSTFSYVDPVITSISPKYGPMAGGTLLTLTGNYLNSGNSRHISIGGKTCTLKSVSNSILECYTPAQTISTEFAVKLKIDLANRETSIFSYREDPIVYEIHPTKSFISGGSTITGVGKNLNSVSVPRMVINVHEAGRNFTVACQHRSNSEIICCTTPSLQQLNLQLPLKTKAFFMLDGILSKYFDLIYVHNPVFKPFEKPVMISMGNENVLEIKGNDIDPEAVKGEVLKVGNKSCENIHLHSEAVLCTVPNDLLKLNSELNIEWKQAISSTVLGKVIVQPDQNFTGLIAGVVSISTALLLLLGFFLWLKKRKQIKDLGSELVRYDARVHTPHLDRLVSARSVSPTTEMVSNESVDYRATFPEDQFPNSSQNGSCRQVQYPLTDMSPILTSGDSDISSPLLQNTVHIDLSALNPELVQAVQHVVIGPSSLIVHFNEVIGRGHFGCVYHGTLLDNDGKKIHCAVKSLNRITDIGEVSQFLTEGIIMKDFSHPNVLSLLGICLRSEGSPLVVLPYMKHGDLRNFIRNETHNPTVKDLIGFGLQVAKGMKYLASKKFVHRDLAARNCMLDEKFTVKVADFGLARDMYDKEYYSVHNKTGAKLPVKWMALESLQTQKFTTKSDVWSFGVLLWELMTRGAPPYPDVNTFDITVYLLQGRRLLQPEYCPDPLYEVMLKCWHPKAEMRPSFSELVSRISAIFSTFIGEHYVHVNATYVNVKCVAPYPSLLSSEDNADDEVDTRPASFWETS

B1: In1B: Listeria monocytogenes surface protein of the internalin family that interacts with Met; purified soluble protein (protein, UniProt P0DQD2 31-630, looked up)
Internalin B: AKVQAETITVPTPIKQIFSDDAFAETIKDNLKKKSVTDAVTQNELNSIDQIIANNSDIKSVQGIQYLPNVTKLFLNGNKLTDIKPLANLKNLGWLFLDENKVKDLSSLKDLKKLKSLSLEHNGISDINGLVHLPQLESLYLGNNKITDITVLSRLTKLDTLSLEDNQISDIVPLAGLTKLQNLYLSKNHISDLRALAGLKNLDVLELFSQECLNKPINHQSNLVVPNTVKNTDGSLVTPEIISDDGDYEKPNVKWHLPEFTNEVSFIFYQPVTIGKAKARFHGRVTQPLKEVYTVSYDVDGTVIKTKVEAGTRITAPKPPTKQGYVFKGWYTEKNGGHEWNFNTDYMSGNDFTLYAVFKAETTEKAVNLTRYVKYIRGNAGIYKLPREDNSLKQGTLASHRCKALTVDREARNGGKLWYRLKNIGWTKAENLSLDRYDKMEYDKGVTAYARVRNASGNSVWTKPYNTAGAKHVNKLSVYQGKNMRILREAKTPITTWYQFSIGGKVIGWVDTRALNTFYKQSMEKPTRLTRYVSANKAGESYYKVPVADNPVKRGTLAKYKNQKLIVDCQATIEGQLWYRIRTSSTFIGWTKAANLRAQK
In the case of B1, the “time of maximal In1B-induced ubiquitination of Met” value (Met [1]; In1B 5 nM) is reported as “two”, the “time of new wave of Met ubiquitination after addition of In1B” value (Met [1]; In1B 5 nM) is reported as 30 min and the “time at which a new band corresponding to Met appeared after addition of In1B” value (Met [1]; In1B 5 nM, anti-Met blot of immunoprecipitates) is reported as 15 min. The “ubiquitination of Met after In1B treatment (re-immunoprecipitation assay)” value (Met [1]; In1B two minutes, re-immunoprecipitated anti-Met, blot anti-ubiquitin) was “induces the ubiquitination of Met”, the “minimal amount of In1B necessary to trigger Met ubiquitination” value (Met [1]; increasing amount of In1B for two minutes) was 1.75 nM and the “Met ubiquitination using higher amount of In1B” value (Met [1]; two minutes, 3.5 to 80 nM In1B (FIG. 1D)) was “did not significantly increase”. The “endocytosis of Met (protection of biotinylated Met from MESNA de-biotinylation)” value (Met [2]) was “protected Met from de-biotinylation” and the “time for which InIB-induced degradation of Met is maintained” value (Met [3]) was “at least 24 hours”.
